Test results as given in patent US7932362B2, “Antibodies to NRIF3 proteins” (New York University, priority 1999, dated 2011).

Legend:
cTRα = target: T1, cTRα (Gallus gallus, UniProt P04625); experiment: Transfection study, CAT reporter in HeLa cells, TR-mediated transactivation; assay type: cell-based, chicken; settings: IR-ΔMTV-CAT reporter, 1 μM T3, FIG. 5A
T1 sequence (P04625 1-408): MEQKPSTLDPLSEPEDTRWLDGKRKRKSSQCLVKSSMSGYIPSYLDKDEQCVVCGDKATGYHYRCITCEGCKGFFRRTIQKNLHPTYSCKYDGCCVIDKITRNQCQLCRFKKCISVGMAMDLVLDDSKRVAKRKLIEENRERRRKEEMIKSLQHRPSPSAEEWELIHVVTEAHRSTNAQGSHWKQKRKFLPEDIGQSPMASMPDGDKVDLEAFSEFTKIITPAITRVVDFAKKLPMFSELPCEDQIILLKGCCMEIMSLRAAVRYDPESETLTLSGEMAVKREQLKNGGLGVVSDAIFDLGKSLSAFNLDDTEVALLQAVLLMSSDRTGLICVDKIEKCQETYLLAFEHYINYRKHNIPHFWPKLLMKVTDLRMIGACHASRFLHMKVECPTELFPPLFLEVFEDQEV
Excerpt: (§1) Transfection studies. Most reporters used in this study have been described previously, including IR-ΔMTV-CAT, DR4-ΔMTV-CAT, GH-TRE-tk-CAT, IR+3 (ERE)-ΔMTV-CAT (5, 25, 78). A DR1-ΔMTV-CAT reporter responsive to RXR was obtained from Ron Evans. A GRE/PRE-tk-CAT reporter was obtained from Gunther Schutz. The (IR)2-TATA-CAT was constructed in our laboratory by cloning two copies of the IR sequence (AGGTCA TGACCT) upstream of a TATA element derived from the tk promoter. A hVDR expression vector and the VDRE-ΔMTV-CAT containing the VDRE from the osteocalcin promoter were obtained from J. Wesley Pike. Vectors expressing cTRα, hRARα, hRXRα, rGR, hPR, and hER have been described previously (17, 25, 26, 50, 53, 81). The NRIF3 expression vector was constructed by cloning full length NRIF3 into a pExpress vector (25). Appropriate plasmids were transfected into HeLa cells by calcium phosphate co-precipitation using 25-100 ng of the receptors, 250-500 ng of the CAT reporters, and 750 ng of the NRIF3 or control pExpress vector. After transfection, cells were incubated at 37° C. (with or without cognate ligands) for 42 hours before being harvested. […] Relative CAT activity was determined as the percent acetylation of substrate per 30 μg of cell protein in a 15 hour incubation at 37° C. The results were calculated from duplicate or quadruplicate samples and the variation among samples was less than 10%.

B42-RAR LBD = experiment: Yeast two-hybrid assay, LexA-NCD bait with prey B42-RAR LBD; assay type: cell-based, human; settings: cognate ligand, FIG. 11
Procedure: The following receptor baits were used: LexA-cTRα LBD, LexA-hTRβ LBD, LexA-hRARα LBD, LexA-hRXRα LBD, and LexA-hGR LBD. The NRIF3 C-terminal domain (NCD) was fused in frame with the LexA DBD and examined for interaction with receptor LBDs using the following preys: B42-cTRα LBD, B42-hRARα LBD, and B42-hRXRα LBD expressed from pJG4-5. Yeast cells harboring appropriate plasmids were grown in selective media with Gal/Raf in the presence or absence of cognate ligand (1 μM T3 for TR, all trans or 9-cis RA for RAR, 9-cis RA for RXR, and 10 μM deoxycorticosterone for GR) overnight before β-galactosidase activity was assayed using o-Nitrophenyl β-D-Galactopyranoside as the substrate. β-galactosidase units are expressed as (O.D. 420 nm×1000)/(minutes of incubation×O.D. 600 nm of yeast suspension).
To construct the bait plasmid expressing LexA-NCD, a derivative of pEG202 (which contains a new polylinker) plasmid was digested with NcoI and XhoI and ligated to synthetic oligonucleotides that encode the last 16 amino acids of NRIF3 (residues 162-177). Similarly, mutant NCD was generated by using oligonucleotides that contain the designed mutations in the ligation reaction. All constructs were confirmed by sequence analysis. […]

endogenous RAR(s) = experiment: Transfection study, CAT reporter in HeLa cells, endogenous RAR(s); assay type: cell-based, human; settings: 1 μM, HeLa cells without receptor expression vector, FIG. 6A
Excerpt: as §1

LexA-RXR = LexA-RXR (Homo sapiens, UniProt P19793); settings: yeast two-hybrid, 1 μM 9-cis RA, FIG. 8B
LexA-TR = LexA-TR (Gallus gallus, UniProt P04625); settings: yeast two-hybrid, 1 μM T3, FIG. 8B
[1] = system: receptor-mediated transcription; experiment: Transfection studies with endonexins (data not shown); assay type: cell-based
Excerpt: as §1

LexA-RXR, sequence (P19793 227-462): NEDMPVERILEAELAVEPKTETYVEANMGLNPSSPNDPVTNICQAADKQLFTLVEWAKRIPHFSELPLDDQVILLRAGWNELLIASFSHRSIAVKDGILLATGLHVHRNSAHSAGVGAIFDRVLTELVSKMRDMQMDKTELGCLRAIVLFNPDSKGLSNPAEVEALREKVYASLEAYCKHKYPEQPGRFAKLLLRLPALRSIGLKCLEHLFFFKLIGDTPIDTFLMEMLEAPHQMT
B42-RAR LBD, sequence (P10276 183-417 limits assumed): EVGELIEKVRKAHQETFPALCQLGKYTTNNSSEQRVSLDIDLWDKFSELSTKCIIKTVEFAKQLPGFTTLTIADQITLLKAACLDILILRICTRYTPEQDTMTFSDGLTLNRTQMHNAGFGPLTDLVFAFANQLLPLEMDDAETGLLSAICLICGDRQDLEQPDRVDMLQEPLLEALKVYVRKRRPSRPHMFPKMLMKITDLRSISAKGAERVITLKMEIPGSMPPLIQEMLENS

Row | Molecule | interaction with liganded RXR (LexA-RXR) | interaction with liganded TR (LexA-TR) | effect on receptor-mediated transcription [1] | other results
1 | CBP: reported co-activator for nuclear receptors, used as a control | – | – | – | enhancement of TR-mediated activation of the CAT reporter (cTRα): around 3 fold
2 | NCD: C-terminal domain of NRIF3, amino acids 162-177; docked as 17-residue peptide KASRHLDSYEFLKAILN (SEQ ID NO:7) (C-terminal peptide of NRIF3) | – | – | – | interaction with the LBD of RAR (B42-RAR LBD): interact efficiently
3 | C/C(=C\c1ccc(C(=O)O)cc1)c1ccc2c(c1)C(C)(C)CCC2(C)C [TTNPB] | – | – | – | activation of the IR-ΔMTV-CAT reporter by ligand (endogenous RAR(s)): activates
4 | EnS: β3-endonexin short form, 111 amino acids, identical to the first 111 residues of NRIF3 (protein) MPVKRSLKLDGLLEENSFDPSKITRKKSVITYSPTTGTCQMSLFASPTSSEEQKHRNGLSNEKRKKLNHPSLTESKESTTKDNDEFMMLLSKVEKLSEEIMEIMQNLSSIQ | completely abolished | completely abolished | little effect | –
5 | EnL: β3-endonexin long form, 170 amino acids, alternatively spliced product of the same gene as NRIF3 (protein) MPVKRSLKLDGLLEENSFDPSKITRKKSVITYSPTTGTCQMSLFASPTSSEEQKHRNGLSNEKRKKLNHPSLTESKESTTKDNDEFMMLLSKVEKLSEEIMEIMQNLSSIQALEGSRELENLIGISCASHFLKREMQKTKELMTKVNKQKLFEKSTGLPHKGQPQMSPQL | completely abolished | completely abolished | little effect | –
